Test in all cases: SPR
In general terms: Surface plasmon resonance follows binding to a sensor surface in real time, without labels.

The target in one test is T1, biotinylated mouse FcγRI (mouse, UniProt P26151 25-297, biotin).
T1 chain: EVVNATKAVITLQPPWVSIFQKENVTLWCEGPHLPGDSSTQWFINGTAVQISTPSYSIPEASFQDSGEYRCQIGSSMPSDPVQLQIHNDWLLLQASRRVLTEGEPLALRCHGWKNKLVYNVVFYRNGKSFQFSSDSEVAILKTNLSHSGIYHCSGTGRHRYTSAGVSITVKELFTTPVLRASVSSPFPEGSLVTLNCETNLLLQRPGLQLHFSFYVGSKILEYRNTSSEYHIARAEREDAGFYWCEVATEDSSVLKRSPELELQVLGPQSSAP

In test [1] the target is T2, biotinylated mouse FcγRIV (mouse, UniProt A0A0B4J1G0 21-203, biotin).
T2 chain: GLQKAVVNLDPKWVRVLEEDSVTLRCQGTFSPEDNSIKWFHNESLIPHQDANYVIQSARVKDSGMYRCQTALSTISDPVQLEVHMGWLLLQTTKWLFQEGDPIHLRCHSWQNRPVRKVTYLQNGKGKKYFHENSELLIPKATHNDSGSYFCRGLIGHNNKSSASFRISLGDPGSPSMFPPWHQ

The next test concerns the target T3, His-tagged mouse FcγRIII (mouse, UniProt P08508 31-261).
T3 chain: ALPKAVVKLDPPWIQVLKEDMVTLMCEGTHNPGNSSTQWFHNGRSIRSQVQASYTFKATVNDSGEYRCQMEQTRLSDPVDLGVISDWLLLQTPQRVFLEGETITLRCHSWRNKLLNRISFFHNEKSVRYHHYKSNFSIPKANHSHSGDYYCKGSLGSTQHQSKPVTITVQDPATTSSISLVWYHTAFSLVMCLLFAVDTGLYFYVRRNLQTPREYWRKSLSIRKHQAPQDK

B1: Ipilimumab mIgG2a wildtype (anti-human CTLA-4 mIgG2a with an intact Fc domain) (antibody)
chain 1: QVQLVESGGGVVQPGRSLRLSCAASGFTFSSYTMHWVRQAPGKGLEWVTFISYDGNNKYYADSVKGRFTISRDNSKNTLYLQMNSLRAEDTAIYYCARTGWLGPFDYWGQGTLVTVSS
chain 2: not shown
In the case of B1, the Kd (commonly the free concentration of one partner at which half of the binding sites on the other are occupied at equilibrium, for simple one-to-one binding) with biotinylated mouse FcγRI amounted to 85.8 nM; in test [1], 388 nM; with His-tagged mouse FcγRIII, 3690 nM.

For the origin of these results see paper PMC9463231 (2022).
